± gives the standard deviation of the averaged measurements.
Key:
Saccharomyces cerevisiae [1] = experiment: protein stability index of tFT-peptide fusion (C-terminal peptide) (PSI (0-1 scale)); higher = more stable (slower turnover)
Experimental: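 MPS profiling in S. cerevisiae of the tFT-X12 degron library: putative degron peptides plus stable controls, 12 aa, fused to the C-terminus of a sfGFP-mCherry timer. Cells are FACS-sorted into 8 mCherry/sfGFP bins and deep-sequenced. PSI runs from 0 (unstable) to 1 (stable). Backgrounds are wild type, das1Δ and doa10Δ at 30 °C, and wild type, das1Δ, cdc34-1 and cdc53-1 at 37 °C; 2-3 technical replicates each.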

Saccharomyces cerevisiae [2] = experiment: as above; conditions: genetic background: wild type; temperature: 30 C
[3] = genetic background: cdc34-1, temperature: 37 C
[4] = genetic background: cdc53-1, temperature: 37 C
[5] = genetic background: das1 deletion, temperature: 30 C
[6] = genetic background: das1 deletion, temperature: 37 C
[7] = genetic background: doa10 deletion, temperature: 30 C
[8] = genetic background: wild type, temperature: 30 C
[9] = genetic background: wild type, temperature: 37 C
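Note: PSI is a weighted mean of sequencing reads over stability bins, variants kept only with over 10 reads, mCherry proximal and sfGFP distal, peptide attached via GGGS linker.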

Row | Sequence | protein stability index (Saccharomyces cerevisiae [1]; [3]) | protein stability index (Saccharomyces cerevisiae [1]; [4]) | protein stability index (Saccharomyces cerevisiae [1]; [5]) | protein stability index (Saccharomyces cerevisiae [1]; [6]) | protein stability index (Saccharomyces cerevisiae [1]; [7]) | protein stability index (Saccharomyces cerevisiae [1]; [8]) | protein stability index (Saccharomyces cerevisiae [1]; [9]) | protein stability index (Saccharomyces cerevisiae [2])
1 | ASGFLVIPLWVF | 0.41 ± 0.0072 | 0.4653 ± 0.0021 | 0.323 ± 0.029 | 0.491 ± 0.022 | 0.17 ± 0.0047 | 0.19 ± 0.018 | 0.255 ± 0.0083 | 0.294 ± 0.019
2 | ASICAFFCWFLV | 0.527 ± 0.035 | 0.58116 ± 0.00042 | 0.457 ± 0.023 | 0.601 ± 0.024 | 0.326 ± 0.0088 | 0.321 ± 0.026 | 0.497 ± 0.013 | 0.419 ± 0.022
3 | ASSFYVDLVLVS | 0.457 ± 0.014 | 0.464 ± 0.024 | 0.341 ± 0.034 | 0.516 ± 0.013 | 0.286 ± 0.0084 | 0.327 ± 0.046 | 0.484 ± 0.0065 | 0.447 ± 0.0094
4 | AYACSILRCKSS | 0.624 ± 0.015 | 0.727 ± 0.013 | 0.636 ± 0.012 | 0.713 ± 0.026 | 0.186 ± 0.016 | 0.219 ± 0.052 | 0.422 ± 0.04 | 0.34 ± 0.086
5 | CAGRQGRERGHT | 0.694 ± 0.03 | 0.7217 ± 0.0042 | 0.658 ± 0.043 | 0.722 ± 0.016 | 0.63499 ± 0.00057 | 0.658 ± 0.013 | 0.717 ± 0.036 | 0.695 ± 0.011
6 | CALFLLSSPSPT | 0.713 ± 0.061 | 0.781 ± 0.01 | 0.634 ± 0.018 | 0.768 ± 0.012 | 0.659 ± 0.021 | 0.6451 ± 0.0031 | 0.7356 ± 0.0054 | 0.699 ± 0.011
7 | CASIVDGFAFRF | 0.752 ± 0.0086 | 0.782 ± 0.03 | 0.632 ± 0.011 | 0.786 ± 0.0097 | 0.646 ± 0.023 | 0.679 ± 0.046 | 0.7472 ± 0.0015 | 0.7662 ± 0.0074
8 | CFCPILFPRCLA | 0.476 ± 0.048 | 0.636 ± 0.016 | 0.579 ± 0.045 | 0.6659 ± 0.0023 | 0.142 ± 0.017 | 0.139 ± 0.021 | 0.19 ± 0.013 | 0.25 ± 0.072
9 | CFGFMFLLLFDV | 0.3073 ± 0.0011 | 0.312 ± 0.0066 | 0.334 ± 0.024 | 0.448 ± 0.013 | 0.467 ± 0.011 | 0.317 ± 0.027 | 0.418 ± 0.0039 | 0.405 ± 0.02
10 | CFRRPLLRVVLT | 0.502 ± 0.014 | 0.5681 ± 0.0051 | 0.451 ± 0.037 | 0.59 ± 0.025 | 0.4289 ± 0.0035 | 0.435 ± 0.017 | 0.569 ± 0.0089 | 0.506 ± 0.018
11 | CFSYLLIVLLFP | 0.168 ± 0.019 | 0.2273 ± 0.00043 | 0.198 ± 0.024 | 0.334 ± 0.031 | 0.216 ± 0.0065 | 0.17 ± 0.045 | 0.307 ± 0.0052 | 0.279 ± 0.005
12 | CFVPFFLPLCAF | 0.0255 ± 0.0085 | 0.0285 ± 0.0074 | 0.0864 ± 0.03 | 0.109 ± 0.058 | 0.144 ± 0.0073 | 0.0733 ± 0.019 | 0.0588 ± 0.022 | 0.139 ± 0.016
13 | CGILACSVCTFF | 0.547 ± 0.071 | 0.6516 ± 0.0037 | 0.427 ± 0.027 | 0.6336 ± 0.0037 | 0.405 ± 0.016 | 0.436 ± 0.024 | 0.61 ± 0.023 | 0.509 ± 0.021
14 | CGLLWFYSFFLF | 0.502 ± 0.019 | 0.491 ± 0.013 | 0.391 ± 0.04 | 0.5187 ± 0.0046 | 0.375 ± 0.012 | 0.316 ± 0.013 | 0.465 ± 0.018 | 0.38 ± 0.021
15 | CGLYNQFCLFLY | 0.561 ± 0.04 | 0.626 ± 0.022 | 0.527 ± 0.018 | 0.6526 ± 0.0024 | 0.2274 ± 0.0022 | 0.217 ± 0.029 | 0.37 ± 0.0043 | 0.31 ± 0.027
16 | CGVWVVVASAYR | 0.43 ± 0.019 | 0.483 ± 0.03 | 0.302 ± 0.02 | 0.49431 ± 0.00019 | 0.2812 ± 0.0017 | 0.304 ± 0.019 | 0.508 ± 0.0093 | 0.377 ± 0.03
17 | CGWVRRARVKMM | 0.622 ± 0.073 | 0.693 ± 0.01 | 0.63 ± 0.026 | 0.709 ± 0.014 | 0.114 ± 0.03 | 0.137 ± 0.029 | 0.226 ± 0.0087 | 0.241 ± 0.015
18 | CHFLLPFLFTCA | 0.225 ± 0.027 | 0.28 ± 0.0099 | 0.244 ± 0.043 | 0.3685 ± 0.00097 | 0.1949 ± 0.0015 | 0.221 ± 0.024 | 0.309 ± 0.0071 | 0.332 ± 0.006
19 | CLASCRHRTYLC | 0.652 ± 0.026 | 0.7142 ± 0.0013 | 0.641 ± 0.023 | 0.7223 ± 0.0018 | 0.338 ± 0.015 | 0.364 ± 0.025 | 0.58 ± 0.016 | 0.483 ± 0.12
20 | CLFRVCLFILSI | 0.397 ± 0.019 | 0.49 ± 0.049 | 0.333 ± 0.038 | 0.489 ± 0.0053 | 0.3114 ± 0.00076 | 0.3 ± 0.028 | 0.467 ± 0.013 | 0.386 ± 0.0041

Row | Sequence | protein stability index (Saccharomyces cerevisiae [1]; [3]) | protein stability index (Saccharomyces cerevisiae [1]; [4]) | protein stability index (Saccharomyces cerevisiae [1]; [5]) | protein stability index (Saccharomyces cerevisiae [1]; [6]) | protein stability index (Saccharomyces cerevisiae [1]; [7]) | protein stability index (Saccharomyces cerevisiae [1]; [8]) | protein stability index (Saccharomyces cerevisiae [1]; [9]) | protein stability index (Saccharomyces cerevisiae [2])
21 | CLLGMKSRTILV | 0.347 ± 0.029 | 0.33 ± 0.0047 | 0.289 ± 0.028 | 0.4262 ± 0.0024 | 0.236 ± 0.006 | 0.287 ± 0.03 | 0.397 ± 0.015 | 0.377 ± 0.014
22 | CLLSRYRVFFLG | 0.629 ± 0.071 | 0.7205 ± 0.0048 | 0.591 ± 0.023 | 0.706 ± 0.026 | 0.134 ± 0.014 | 0.184 ± 0.026 | 0.351 ± 0.017 | 0.29 ± 0.056
23 | CLWLRCIVSILP | 0.121 ± 0.0082 | 0.248 ± 0.0081 | 0.184 ± 0.028 | 0.321 ± 0.01 | 0.16 ± 0.0074 | 0.168 ± 0.025 | 0.30428 ± 0.00014 | 0.239 ± 0.034
24 | CPVSFSFCLKVL | 0.348 ± 0.019 | 0.431 ± 0.03 | 0.32 ± 0.026 | 0.468 ± 0.016 | 0.0628 ± 0.019 | 0.0823 ± 0.021 | 0.115 ± 0.063 | 0.045 ± 0.016
25 | CRCLFVVKNWLS | 0.62 ± 0.039 | 0.706 ± 0.012 | 0.623 ± 0.015 | 0.688 ± 0.04 | 0.147 ± 0.029 | 0.167 ± 0.013 | 0.293 ± 0.06 | 0.262 ± 0.017
26 | CSRTRLHCFTAS | 0.696 ± 0.062 | 0.7452 ± 0.0029 | 0.647 ± 0.028 | 0.74183 ± 0.00066 | 0.5808 ± 0.0019 | 0.585 ± 0.027 | 0.6796 ± 0.005 | 0.712 ± 0.011
27 | CSSIFSSSDCYA | 0.681 ± 0.059 | 0.7582 ± 0.0047 | 0.672 ± 0.029 | 0.7219 ± 0.0061 | 0.68 ± 0.01 | 0.68 ± 0.018 | 0.731 ± 0.011 | 0.7457 ± 0.0014
28 | CVFCRVAVGVDG | 0.5389 ± 0.0011 | 0.5838 ± 0.0043 | 0.438 ± 0.03 | 0.616 ± 0.0086 | 0.428 ± 0.028 | 0.439 ± 0.0076 | 0.5899 ± 0.0034 | 0.516 ± 0.026
29 | CVFVRCVDCMSG | 0.553 ± 0.013 | 0.544 ± 0.041 | 0.384 ± 0.031 | 0.594 ± 0.0081 | 0.354 ± 0.034 | 0.387 ± 0.015 | 0.579 ± 0.0085 | 0.465 ± 0.024
30 | CVLGWCSLIAWC | 0.201 ± 0.044 | 0.238 ± 0.032 | 0.234 ± 0.015 | 0.231 ± 0.011 | 0.245 ± 0.025 | 0.242 ± 0.0093 | 0.1967 ± 0.0017 | 0.284 ± 0.018
31 | CWLFVWVRVISL | 0.0995 ± 0.049 | 0.118 ± 0.01 | 0.155 ± 0.038 | 0.23174 ± 3.6e-05 | 0.103 ± 0.024 | 0.12 ± 0.033 | 0.158 ± 0.018 | 0.186 ± 0.033
32 | DCLSFVLFLFLC | 0.203 ± 0.038 | 0.259 ± 0.015 | 0.239 ± 0.025 | 0.39151 ± 0.00036 | 0.149 ± 0.007 | 0.134 ± 0.022 | 0.149 ± 0.0066 | 0.183 ± 0.017
33 | DFCCGVILTCVC | 0.0751 ± 0.0081 | 0.106 ± 0.011 | 0.191 ± 0.025 | 0.233 ± 0.0083 | 0.156 ± 0.012 | 0.184 ± 0.019 | 0.193 ± 0.023 | 0.279 ± 0.01
34 | DGGHLVGHDLFY | 0.716 ± 0.023 | 0.747 ± 0.023 | 0.656 ± 0.023 | 0.758 ± 0.032 | 0.657 ± 0.016 | 0.664 ± 0.053 | 0.78 ± 0.0091 | 0.727 ± 0.024
35 | DIGCLWSKTRLC | 0.669 ± 0.019 | 0.7585 ± 0.0073 | 0.652 ± 0.0094 | 0.763 ± 0.015 | 0.324 ± 0.022 | 0.359 ± 0.017 | 0.6042 ± 0.0039 | 0.431 ± 0.12
36 | DILQITNIKQKR | 0.71 ± 0.041 | 0.741 ± 0.015 | 0.676 ± 0.038 | 0.731 ± 0.021 | 0.654 ± 0.014 | 0.654 ± 0.014 | 0.722 ± 0.039 | 0.572 ± 0.16
37 | DVHPLFYCIPVY | 0.0345 ± 0.018 | 0.0286 ± 0.016 | 0.101 ± 0.037 | 0.0568 ± 0.014 | 0.0881 ± 0.0095 | 0.101 ± 0.02 | 0.0474 ± 0.03 | 0.13922 ± 3.4e-05
38 | FAIPFVLFFRVT | 0.161 ± 0.02 | 0.134 ± 0.0062 | 0.257 ± 0.03 | 0.333 ± 0.017 | 0.2593 ± 0.0021 | 0.173 ± 0.024 | 0.231 ± 0.013 | 0.224 ± 0.07
39 | FASALAPLSAVA | 0.48 ± 0.014 | 0.494 ± 0.022 | 0.366 ± 0.044 | 0.529 ± 0.001 | 0.307 ± 0.0091 | 0.358 ± 0.036 | 0.509 ± 0.0079 | 0.4002 ± 0.0029
